Data as given in patent publication US20200239543A1 (ALX ONCOLOGY, published 2020).

T1: mouse CD47 (mouse, UniProt Q61735 19-140, limits assumed)
T1 construct: also called mouse CD47 protein
T1 sequence (looked up): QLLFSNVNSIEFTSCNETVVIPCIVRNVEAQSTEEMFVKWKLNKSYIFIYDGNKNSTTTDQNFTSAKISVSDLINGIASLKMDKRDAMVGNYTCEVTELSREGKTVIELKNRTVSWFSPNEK

T2: rat CD47 (rat, UniProt P97829 19-140, limits assumed)
T2 sequence (looked up): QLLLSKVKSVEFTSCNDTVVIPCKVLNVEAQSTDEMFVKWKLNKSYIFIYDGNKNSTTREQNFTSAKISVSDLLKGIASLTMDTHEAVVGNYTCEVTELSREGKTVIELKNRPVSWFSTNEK


Assays:
human CD47 [1] = biological target: T3, human CD47 (human, UniProt Q08722 19-139); assay: SPR (Biacore T100 and ProteOn XPR36)
T3 construct: extracellular domain; also called CD47 ECD

mouse CD47 = biological target: T1, mouse CD47; assay: SPR (Biacore T100 and ProteOn XPR36)
rat CD47 = biological target: T2, rat CD47; assay: SPR (Biacore T100 and ProteOn XPR36)
human CD47 [2] = biological target: T3, human CD47; assay: SPR as in Example 1
human CD47 [3] = biological target: T3, human CD47; assay: SPR, 25 C, 1:1 Langmuir fit
human CD47 [4] = biological target: T3, human CD47; assay: SPR, 25 C, 1:1 Langmuir fit; remark: listed apart in the source
human CD47 [5] = biological target: T3, human CD47; assay: SPR; protein made in E. coli

T3 sequence (Q08722 19-139 limits assumed): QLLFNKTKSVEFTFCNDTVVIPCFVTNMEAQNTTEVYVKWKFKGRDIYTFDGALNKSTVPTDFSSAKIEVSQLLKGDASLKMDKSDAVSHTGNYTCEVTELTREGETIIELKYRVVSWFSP

Row | Binder | Kd (human CD47 [1]) [nM] | Kd (mouse CD47) [nM] | Kd (rat CD47) [nM] | Kd (human CD47 [4]) [nM] | Kd (human CD47 [5]) [nM] | further results
1 | SIRP-α D1 variant fused to Fc variant, SEQ ID NO: 214 (Fc fusion) EEELQVIQPDKSVLVAAGETATLRCTATSLFPVGPIQWFRGAGPGRELIYNQREGPFPRVTTVSDLTKRNNMDFSIRIGAITPADAGTYYCVKFRKGSPDDVEFKSGAGTELSVRAKPSERKSSVECPPCPAPPVAGPSVFLFPPKPKDTLMISRTPEVTCVVVDVSHEDPEVQFNWYVDGVEVHNAKTKPREEQFASTFRVVSVLTVVHQDWLNGKEYKCKVSNKGLPSSIEKTISKTKGQPREPQVYTLPPSREEMTKNQVSLTCLVKGFYPSDIAVEWESNGQPENNYKTTPPMLDSDGSFFLYSKLTVDKSRWQQGNVFSCSVMHEALHNHYTQKSLSLSPG | 2 | 63 | 80 | – | – | –
2 | SIRP-α D1 variant fused to Fc variant, SEQ ID NO: 97 (Fc fusion) EEELQVIQPDKSVLVAAGETATLRCTATSLFPVGPIQWFRGAGPGRELIYNQRQGPFPRVTTVSDLTKRNNMDFSIRIGNITPADAGTYYCVKFRKGSPDDVEFKSGAGTELSVRAKPSDKTHTCPPCPAPEAAGAPSVFLFPPKPKDTLMISRTPEVTCVVVDVSHEDPEVKFNWYVDGVEVHNAKTKPREEQYASTYRVVSVLTVLHQDWLNGKEYKCKVSNKALPAPIEKTISKAKGQPREPQVYTLPPSREEMTKNQVSLTCLVKGFYPSDIAVEWESNGQPENNYKTTPPVLDSDGSFFLYSKLTVDKSRWQQGNVFSCSVMHEALHNHYTQKSLSLSPGK | – | – | – | – | – | Kd (human CD47 [2]): 1.09 nM; Kd (human CD47 [3]): 1.55 nM
3 | engineered SIRP-α D1 variant construct that does not bind CD47, SEQ ID NO: 215 (Fc fusion, negative control; also called negative control) EEELQVIQPDKSVLVAAGETATLRCTATSLIPRGPIQWFRGAGPGRELIYNRKEGHFPRVTTVSDLTKRNNMDFSIRIGNITPADAGTYYCVKFRKGSPDDVEFKSGAGTELSVRAKPSDKTHTCPPCPAPEAAGAPSVFLFPPKPKDTLMISRTPEVTCVVVDVSHEDPEVKFNWYVDGVEVHNAKTKPREEQYASTYRVVSVLTVLHQDWLNGKEYKCKVSNKALPAPIEKTISKAKGQPREPQVYTLPPSREEMTKNQVSLTCLVKGFYPSDIAVEWESNGQPENNYKTTPPVLDSDGSFFLYSKLTVDKSRWQQGNVFSCSVMHEALHNHYTQKSLSLSPGK | – | – | – | – | – | binding result (human CD47 [1]): no binding; binding result (mouse CD47): no binding; binding result (rat CD47): no binding
4 | SIRP-α D1 variant polypeptide of SEQ ID NO: 54 (receptor, engineered SIRP-α D1 domain) EEELQVIQPDKSVSVAAGESAILHCTVTSLFPVGPIQWFRGAGPARELIYNQRQGPFPRVTTVSESTKRENMDFSISISNITPADAGTYYCVKFRKGSPDTEFKSGAGTELSVRAKPS | – | – | – | 2.7 | 2.7 | –
5 | SIRP-α D1 variant polypeptide of SEQ ID NO: 60 (receptor, engineered SIRP-α D1 domain) EEELQIIQPDKSVSVAAGESAILHCTITSLFPVGPIQWFRGAGPARVLIYNQREGPFPRVTTVSETTKRENMDFSISISNITPADAGTYYCIKFRKGSPDTEFKSGAGTELSVRAKPS | – | – | – | 0.38 | 0.38 | –
6 | SIRP-α D1 variant polypeptide of SEQ ID NO: 59 (receptor, engineered SIRP-α D1 domain) EEELQIIQPDKSVSVAAGESAILHCTITSLFPVGPIQWFRGAGPARVLIYNQKQGPFPRVTTVSETTKRENMDFSISISNITPADAGTYYCIKFRKGSPDTEFKSGAGTELSVRAKPS | – | – | – | 14 | 14 | –
7 | SIRP-α D1 variant polypeptide of SEQ ID NO: 62 (receptor, engineered SIRP-α D1 domain) EEELQIIQPDKSVSVAAGESAILHCTITSLFPVGPIQWFRGAGPARVLIYNQRQGPFPRVTTVSESTKRENMDFSISISNITPADAGTYYCIKFRKGSPDTEFKSGAGTELSVRAKPS | – | – | – | 0.13 | 0.13 | –
8 | SIRP-α D1 variant polypeptide of SEQ ID NO: 61 (receptor, engineered SIRP-α D1 domain) EEELQIIQPDKSVSVAAGESAILHCTITSLFPVGPIQWFRGAGPARVLIYNQRQGHFPRVTTVSETTKRENMDFSISISNITPADAGTYYCIKFRKGSPDTEFKSGAGTELSVRAKPS | – | – | – | 0.38 | 0.38 | –
9 | SIRP-α D1 variant polypeptide of SEQ ID NO: 58 (receptor, engineered SIRP-α D1 domain) EEELQIIQPDKSVSVAAGESAILHCTITSLFPVGPIQWFRGAGPARELIYNQRQGPFPRVTTVSETTKRENMDFSISISNITPADAGTYYCIKFRKGSPDTEFKSGAGTELSVRAKPS | – | – | – | 0.16 | 0.16 | –
10 | SIRP-α D1 variant polypeptide of SEQ ID NO: 57 (receptor, engineered SIRP-α D1 domain) EEELQIIQPDKSVSVAAGESAILHCTITSLIPVGPIQWFRGAGPARVLIYNQRQGPFPRVTTVSETTKRENMDFSISISNITPADAGTYYCIKFRKGSPDTEFKSGAGTELSVRAKPS | – | – | – | 0.36 | 0.36 | –
11 | SIRP-α D1 variant polypeptide of SEQ ID NO: 56 (receptor, engineered SIRP-α D1 domain) EEELQIIQPDKSVSVAAGESAILHCTVTSLFPVGPIQWFRGAGPARVLIYNQRQGPFPRVTTVSETTKRENMDFSISISNITPADAGTYYCIKFRKGSPDTEFKSGAGTELSVRAKPS | – | – | – | 0.2 | 0.2 | –
12 | SIRP-α D1 variant polypeptide of SEQ ID NO: 198 (receptor) EEELQIIQPDKSVLVAAGETATLRCTITSLYPVGPIQWFRGAGPGRELIYNQREGPFPRVTTVSDTTKRNNMDFSIRIGAITPADAGTYYCVKFRKGSPDDVEFKSGAGTELSVRAKPS | 0.155 | 1.41 | 9.88 | – | – | –
13 | SIRP-α D1 variant polypeptide of SEQ ID NO: 200 (receptor) EEELQIIQPDKSVLVAAGETATLRCTITSLFPVGPIQWFRGAGPGRELIYNQREGPFPRVTTVSDTTKRNNMDFSIRIGAITPADAGTYYCVKFRKGIPDDVEFKSGAGTELSVRAKPS | 0.304 | 1.17 | 14.2 | – | – | –
14 | SIRP-α D1 variant polypeptide of SEQ ID NO: 199 (receptor) EEELQIIQPDKSVLVAAGETATLRCTITSLFPVGPIQWFRGAGPGRELIYNQRDGPFPRVTTVSDTTKRNNMDFSIRIGAITPADAGTYYCVKFRKGSPDDVEFKSGAGTELSVRAKPS | 1.26 | 1.25 | 10.7 | – | – | –
15 | SIRP-α D1 variant polypeptide of SEQ ID NO: 208 (receptor) EEELQIIQPDKSVLVAAGETATLRCTITSLYPVGPIQWFRGAGPGRELIYNQREGPFPRVTTVSDTTKRNNMDFSIRIGAITPADAGTYYCVKFRKGIPDDVEFKSGAGTELSVRAKPS | 0.219 | 0.832 | 5.17 | – | – | –
16 | SIRP-α D1 variant polypeptide of SEQ ID NO: 207 (receptor) EEELQIIQPDKSVLVAAGETATLRCTITSLYPVGPIQWFRGAGPGRELIYNQRDGPFPRVTTVSDTTKRNNMDFSIRIGAITPADAGTYYCVKFRKGSPDDVEFKSGAGTELSVRAKPS | 1.04 | 0.88 | 5.9 | – | – | –
17 | SIRP-α D1 variant polypeptide of SEQ ID NO: 205 (receptor) EEELQIIQPDKSVLVAAGETATLRCTITSLRPVGPIQWFRGAGPGRELIYNQREGPFPRVTTVSDTTKRNNMDFSIRIGAITPADAGTYYCVKFRKGIPDDVEFKSGAGTELSVRAKPS | 0.248 | 0.569 | 4.28 | – | – | –
18 | SIRP-α D1 variant fused to Fc variant, SEQ ID NO: 109 (Fc fusion) EEELQVIQPDKSVLVAAGETATLRCTATSLFPVGPIQWFRGAGPGRELIYNQREGPFPRVTTVSDLTKRNNMDFSIRIGAITPADAGTYYCVKFRKGSPDDVEFKSGAGTELSVRAKPSVECPPCPAPPVAGPSVFLFPPKPKDTLMISRTPEVTCVVVDVSHEDPEVQFNWYVDGVEVHNAKTKPREEQFASTFRVVSVLTVVHQDWLNGKEYKCKVSNKGLPSSIEKTISKTKGQPREPQVYTLPPSREEMTKNQVSLTCLVKGFYPSDIAVEWESNGQPENNYKTTPPMLDSDGSFFLYSKLTVDKSRWQQGNVFSCSVMHEALHNHYTQKSLSLSPGK | – | – | – | – | – | Kd (human CD47 [2]): 2.15 nM
19 | SIRP-α D1 variant fused to Fc variant, SEQ ID NO: 111 (Fc fusion) EEELQIIQPDKSVLVAAGETATLRCTITSLFPVGPIQWFRGAGPGRELIYNQREGPFPRVTTVSDLTKRNNMDFSIRIGAITPADAGTYYCVKFRKGSPDDVEFKSGAGTELSVRAKPSVECPPCPAPPVAGPSVFLFPPKPKDTLMISRTPEVTCVVVDVSHEDPEVQFNWYVDGVEVHNAKTKPREEQFASTFRVVSVLTVVHQDWLNGKEYKCKVSNKGLPSSIEKTISKTKGQPREPQVYTLPPSREEMTKNQVSLTCLVKGFYPSDIAVEWESNGQPENNYKTTPPMLDSDGSFFLYSKLTVDKSRWQQGNVFSCSVMHEALHNHYTQKSLSLSPGK | – | – | – | – | – | Kd (human CD47 [2]): 0.315 nM
20 | SIRP-α D1 variant fused to Fc variant, SEQ ID NO: 114 (Fc fusion) EEELQIIQPDKSVLVAAGETATLRCTITSLFPVGPIQWFRGAGPGRVLIYNQRQGPFPRVTTVSDTTKRNNMDFSIRIGNITPADAGTYYCIKFRKGSPDDVEFKSGAGTELSVRAKPSERKSSVECPPCPAPPVAGPSVFLFPPKPKDTLMISRTPEVTCVVVDVSHEDPEVQFNWYVDGVEVHNAKTKPREEQFASTFRVVSVLTVVHQDWLNGKEYKCKVSNKGLPSSIEKTISKTKGQPREPQVYTLPPSREEMTKNQVSLTCLVKGFYPSDIAVEWESNGQPENNYKTTPPMLDSDGSFFLYSKLTVDKSRWQQGNVFSCSVMHEALHNHYTQKSLSLSPGK | – | – | – | – | – | Kd (human CD47 [2]): 0.0343 nM
21 | SIRP-α D1 variant fused to Fc variant, SEQ ID NO: 115 (Fc fusion) EEELQVIQPDKSVLVAAGETATLRCTATSLFPVGPIQWFRGAGPGRELIYNQRQGPFPRVTTVSDLTKRNNMDFSIRIGNITPADAGTYYCVKFRKGSPDDVEFKSGAGTELSVRAKPSERKSSVECPPCPAPPVAGPSVFLFPPKPKDTLMISRTPEVTCVVVDVSHEDPEVQFNWYVDGVEVHNAKTKPREEQFASTFRVVSVLTVVHQDWLNGKEYKCKVSNKGLPSSIEKTISKTKGQPREPQVYTLPPSREEMTKNQVSLTCLVKGFYPSDIAVEWESNGQPENNYKTTPPMLDSDGSFFLYSKLTVDKSRWQQGNVFSCSVMHEALHNHYTQKSLSLSPGK | – | – | – | – | – | Kd (human CD47 [2]): 0.498 nM
